In article doi:10.1101/2024.06.06.597810 one finds Kd data, which are given here for one substance.

In the assay the target is Biotin-labeled MHV stem helix peptide (MHV). In words: BLI. Background: In BLI a coated tip is dipped into the sample, and binding shifts an interference pattern.

Broadly, the Kd is the free concentration of one partner at which half of the binding sites on the other are occupied at equilibrium, for simple one-to-one binding. S2P6 WT Fab: the dissociation constant Kd turned out to be 70.4 nM.
